Test results as given in the RNAGym collection of RNA variant scans (doi:10.1073/pnas.2313332121).

B1: TPR t1 (parent)
chain: GACCAAUCUGCCCUCAGAGCUCGAGAACAUCUUCGGAUGCAGAGGAGGCAGGCUUCGGUGGCGCGAUAGCGCCAACGUCCUCAACCUCCAAUGCAUCCCACCACAUGAUGAUGCCUGAAGAGCCUUGGUUUUUUG

Variants of: B1
Assay: polymerase ribozyme fitness, log enrichment relative to wild type (log ratio); higher = more active; in vitro selection for triplet polymerase activity
In short: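 For each subunit of a heterodimeric triplet polymerase ribozyme, a mutant library was built by PCR and transcribed, then taken through a single in vitro selection round in triplicate. Selection involved annealing to a biotinylated primer, the partner subunit and triplets, incubation frozen at −7 °C, gel excision of extended constructs, capture on streptavidin beads and RT-PCR. Genotypes were retained after Illumina sequencing of inputs and outputs only with ≥10 input reads and ≥1 read in each output. Fitness is defined as the logarithm of a genotype's enrichment relative to wild-type enrichment, using inverse-variance-weighted averages across replicates, with the logarithm taken to base 2.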

| Variant | polymerase ribozyme fitness (log ratio) |
| --- | --- |
| C56U G107A | -4.63 |
| C56U G107U | -4.6 |
| C56U G110U | -0.767 |
| C56U G110U A121U | -1.11 |
| C56U G113U C123G U130G | -2.36 |
| C56U G120C G127U | 2.09 |
| C56U G122A | -0.36 |
| C56U G127A | -1.2 |
| C56U G127C | -1.62 |
| C56U G128C | -2.63 |
| C56U G135A | -0.436 |
| C56U G135C | 0.59 |
| C56U U59G C114G | -1.96 |
| C56U U78C | -0.427 |
| C56U U78C U81G C94U | -1.62 |
| C56U U78G U106G G110A U129A U131C | -4.97 |
| C56U U81C | 0.0987 |
| C56U U81G C82A | -1.57 |
| C56U U87A | -0.176 |
| C56U U92A | -2.86 |
| C56U U92G | -2.12 |
| C56U U96C | 0.246 |
| C56U U106A G120A | 0.351 |
| C56U U129C | -0.507 |

| Variant | polymerase ribozyme fitness (log ratio) |
| --- | --- |
| C56U U130G | -1.27 |
| G57A A66C | -2.98 |
| G57A C62G | -3.37 |
| G57A C64G U67G U81A A111U | -6.28 |
| G57A C64U U78C U87C C104U G113A | -1.61 |
| G57A C72A C85U C99G U106G | -7.04 |
| G57A C72A G120A | -0.828 |
| G57A C72U | -1.29 |
| G57A C72U G113A C114U | -2.53 |
| G57A C72U G127U | -2.52 |
| G57A C76A | -0.895 |
| G57A C76A A105C | -4.35 |
| G57A C76U A90U | -1.14 |
| G57A C94U | -2.53 |
| G57A G63U G122A | -2.81 |
| G57A G69U C86A C101G | -2.75 |
| G57A G71U C88G | -5.05 |
| G57A U106G A121C | -0.75 |
| G57C A100U U112C U125C | 0.722 |
| G57C C89G | -0.917 |
| G57C C97U G113C | -3.16 |
| G57C C114G U131C | -2.69 |
| G57C G61U | -0.733 |
| G57C G61U U96G | -1.85 |

| Variant | polymerase ribozyme fitness (log ratio) |
| --- | --- |
| G57C G63A G69U | -1.39 |
| G57C G71U G113C | -3.12 |
| G57C G110A | -1.6 |
| G57C G120U C124U | 0.197 |
| G57C U106A U112A | 1.17 |
| G57C U116C | -0.186 |
| G57C U125A | -0.636 |
| G57U A83C G93C | -1.15 |
| G57U A84C C101G G122A | -3.55 |
| G57U A95U A121U C124U | 1.18 |
| G57U A119U G120U | -0.267 |
| G57U C62G U112A | -2.56 |
| G57U C72U C102A | -2.25 |
| G57U C72U G110C | -4.22 |
| G57U C89A | -1.5 |
| G57U C98U G110A U112G | -5.09 |
| G57U C104A U106C U125A U131C | -1.82 |
| G57U G61C U78G C114U A118U | -5.83 |
| G57U G63C A95C U112A G117A | -4.01 |
| G57U G71A | -0.471 |
| G57U G71A C104A U106C U125A U131C | -3.71 |
| G57U G77U G113A G127C | -2.59 |
| G57U G77U G122A | -1.42 |
| G57U G122A | -1.56 |

| Variant | polymerase ribozyme fitness (log ratio) |
| --- | --- |
| G57U G128A | -1.33 |
| G57U G135U | -0.352 |
| G57U U59A C124A | 1.82 |
| G57U U87A A90C C101U C114U U125A | -4.29 |
| G57U U87G G113A C123U | -1.98 |
| G57U U106G G128C | -3.98 |
| G57U U116C | -1.31 |
| G57U U129C | -1.6 |
| G58A A83U U106A | -1.14 |
| G58A A90C | -1.28 |
| G58A A103G | -4.88 |
| G58A C72G C82A | -0.468 |
| G58A C79A | -1 |
| G58A C82U C115A C124U | -0.385 |
| G58A C101G | -1.94 |
| G58A C101U G120U | -0.534 |
| G58A C124A | 2.39 |
| G58A G60C | -0.284 |
| G58A G63A C98U U112A | -4.56 |
| G58A G63U A118G | -0.392 |
| G58A G71A C89A C123A | -3.72 |
| G58A G71A U81G U132C | -3.8 |
| G58A G120U | -0.283 |
| G58A G122A | -0.321 |

| Variant | polymerase ribozyme fitness (log ratio) |
| --- | --- |
| G58A U59C C70G | -4.95 |
| G58A U81A | -0.982 |
| G58A U130G | -0.629 |
| G58C A83C | 0.207 |
| G58C C62A C114A G127A U130G | -6.59 |
| G58C C76G G77U | -0.291 |
| G58C C85U C123G U132A | 1.38 |
| G58C C97U | -0.321 |
| G58C C98G | -5.66 |
| G58C C98G G120C C123U | -6.14 |
| G58C C101U G122A | -1.1 |
| G58C C102A G120A | -2.34 |
| G58C C115G C123A G135A | -3.89 |
| G58C G60C | -0.636 |
| G58C G71A C82G C88G | -2.39 |
| G58C G71U A74G C85A A90C | -3.43 |
| G58C G117A | -0.561 |
| G58C G120U | 0.305 |
| G58C U59G A95U G122A | -0.6 |
| G58C U59G C86G | -0.556 |
| G58C U67C A100U G120C | -6.28 |
| G58C U106A | 0.185 |
| G58C U109G G117A | -5.76 |
| G58C U112C C114U | -1.68 |

| Variant | polymerase ribozyme fitness (log ratio) |
| --- | --- |
| G58U A68G | -3.5 |
| G58U C62A U92A | -5.81 |
| G58U C70G U106C C124U U130A | -2.53 |
| G58U C73A | -0.295 |
| G58U C82U C94U C114A | -2.23 |
| G58U C86A G117U U130G | -3.79 |
| G58U G60A G77U | 0.541 |
| G58U G60C C88U A95U | -2.05 |
| G58U G60U C80U U87A C89U | -3.57 |
| G58U G61A U131G | -0.481 |
| G58U U81A C124A | 1.33 |
| U59A A75U C86A C115G U116A G117A | -5.94 |
| U59A A83G | -0.546 |
| U59A A90G C123U | 1.4 |
| U59A C62G | -5.21 |
| U59A C64A A118U | -6.49 |
| U59A C64U C82G | -0.95 |
| U59A C70G | -5.27 |
| U59A C70U U87A | -1.83 |
| U59A C70U U96C | -1.25 |
| U59A C85U G113A | -2.11 |
| U59A C94A | -0.84 |
| U59A C124U | 1.47 |
| U59A G63U | -1.93 |

| Variant | polymerase ribozyme fitness (log ratio) |
| --- | --- |
| U59A G77A | -0.182 |
| U59A G93C C114U | -2.6 |
| U59A G117U | -2.68 |
| U59A G128A | -1.96 |
| U59A U81C U87A | -1.17 |
| U59A U87A G113U A118G | -4.7 |
| U59A U92G C104U | -2.6 |
| U59A U112A | 1.47 |
| U59C A83C C101G C115U U116A | -5.84 |
| U59C A83U | -0.619 |
| U59C A83U C94A C115U | -4.3 |
| U59C A111U A118U | -4.73 |
| U59C A118C | -2.95 |
| U59C C70U C85A | -2.04 |
| U59C C80A U81C | -3.7 |
| U59C C89A A95C G113C | -4.48 |
| U59C G63A G69U | -5.13 |
| U59C G71C | -3.63 |
| U59C G71U C88U U92A | -5.66 |
| U59C G113A | -1.03 |
| U59C G113U | -3.62 |
| U59C G120A | 0.486 |
| U59C U78C G122A | -0.562 |
